Source: US20210009673A1, “METHODS FOR REGULATING BREAST CANCERS” (priority 2018, published 2021)

How the values were obtained:
[1] = test system: β-catenin; assay: PTN-stimulated tyrosine phosphorylation of β-catenin in COS-7 cells (immunoprecipitation, Western blot); format: cell-based
Experimental: FIG. 1: FIG. 1 illustrates in (A) PTN stimulation of tyrosine phosphorylation of β-catenin in cells that express RPTPβ/ζ and ALK. COS7 cells transiently expressing ALK and RPTPβ/ζ were stimulated with 10 ng PTN/ml. Cell lysates were prepared and used to immunoprecipitate β-catenin. The immunoprecipitates were analyzed in Western blots probed with anti-phosphotyrosine antibodies. Lane 1, cells transfected with ALK that were not stimulated with PTN. Lane 2, cells transfected with ALK stimulated with PTN. Lane 3, cells transfected with empty vector not stimulated with PTN. Lane 4, cells transfected with empty vector stimulated with PTN. […] The immunoprecipitates were analyzed in Western blots probed with anti-phosphotyrosine antibodies. […] Cell lysates were used to immunoprecipitate β-catenin and the immunoprecipitates were analyzed in Western blots probed with anti-phospho-tyrosine antibodies and reprobed with anti-β-catenin antibodies. […] MCF-7 cells that stably express EGFR/RPTPβ/ζ not transfected with ALK were analyzed as above. […] Lysates of MCF-7 cells and lysates of MCF-7 cells stimulated with EGF were used to immunoprecipitate β-catenin and the immunoprecipitates were analyzed in Western blots probed with anti-phospho-tyrosine antibodies and separately with anti-β-catenin antibodies. […]

[2] = test system: MCF10A cells; assay: morphological epithelial to mesenchymal transition in transfected MCF10A cells; format: cell-based; details: MCF10A cells transfected with RPTPβ/ζ and ALK, stimulated with PTN
Experimental: FIG. 4: FIG. 4 illustrates in: (A), β-catenin phosphorylated by ALK at tyrosine 333 decreases the association of β-catenin with cadherin. Recombinant E-cadherin serine 692 was phosphorylated with CK2 and GSK3β and incubated with recombinant GST-β-catenin, with GST-β-catenin phosphorylated in vitro by ALK, with GST-β-catenin Y333F, or with GST-β-catenin K292A, Y333F, K335A. The GST-conjugated proteins were captured with glutathione-conjugated beads and the phospho-Ser692-E-cadherin that associated with the GST-conjugated proteins was eluted and analyzed in Western blots probed with anti-β-catenin and anti-E-cadherin antibodies. […] After incubation for 20 minutes at 37° C., β-catenin was then captured with glutathione beads and, after extensive washing, eluted with SDS buffer and analyzed in Western blots with either anti-pan-cadherin antibodies, anti-phospho-tyrosine antibodies, or anti-β-catenin antibodies to determine if β-catenin phosphorylated by ALK at tyrosine 333 associates with cadherin. […] The ratio of cells dissociated in calcium-containing media (NTC) vs. the cells dissociated in calcium-free media (NTE) (a “dissociation index,” see Experimental Procedures) was measured. […] The morphological appearance was then analyzed 36 hours later and compared with cells transfected with an equal amount of control empty vector. […]

B1: pleiotrophin (protein, UniProt P21246 33-168, looked up)
Pleiotrophin: GKKEKPEKKVKKSDCGEWQWSVCVPTSGDCGLGTREGTRTGAECKQTMKTQRCKIPCNWKKQFGAECKYQFQAWGECDLNTALKTRTGSLKRALHNAECQKTVTISKPCGKLTKPKPQAESKKKKKEGKKQEKMLD
In the case of B1, the “tyrosine phosphorylation of β-catenin” value ([1]; COS-7 cells expressing RPTPβ/ζ alone) is reported as “failed to stimulate”, the “increased tyrosine phosphorylation of β-catenin” value ([1]; COS-7 cells expressing both ALK and RPTPβ/ζ, 10 ng PTN/ml) is reported as “about 3 fold” and the cell morphology [2] is reported as “assumed a mesenchymal fibroblast-like shape”.
